Results from patent EP1018344A2.

Molecular target: HLA-A2.1 (as the chimeric class I molecule A2.1/K^b on Jurkat A2.1/K^b cells) (human; mouse), A*02:0
Experiment: cell-based or functional assay

Substance | inhibition of release of serine esterase from CTL line 219
peptide 801.02 (HBenv141-157) (from UniProt P03138 141-157) | > 25%
peptide 802.04 (HBc111-125) (from UniProt P03146 111-125) | > 25%
peptide 800.05 (HBenv63-77) (from UniProt P03138 63-77) | > 25%
peptide 799.08 (HBenv309-328) | > 25%
peptide 802.03 (HBc91-110) | > 25%
peptide 802.06 (HBc162-176) (from UniProt P03146 162-176) | > 25%
peptide 799.02 (HBenv194-213) (from UniProt P03138 194-213) | > 25%

The next lines start with the values.

inhibition of release of serine esterase from CTL line 219 | Substance
> 25% | peptide 799.05 (HBenv246-265) (from UniProt P03138 246-265)
> 25% | peptide 799.09 (HBenv329-348)
> 25% | peptide 799.04 (HBenv234-253) (from UniProt P03138 234-253)
> 25% | peptide 799.10 (HBenv349-368)
> 25% | peptide 800.04 (HBenv47-63) (from UniProt P03138 47-63)
> 25% | peptide 802.01 (HBc11-27) (from UniProt P03146 11-27)
